Data from the supplement of paper PMC10065799, “High-throughput profiling of sequence recognition by tyrosine kinases and SH2 domains using bacterial peptide display” (eLife, 2023).

How the values were obtained:
AncSZ = assay: phosphorylation enrichment, bacterial display (enrichment ratio); higher = better substrate or ligand; peptides without Tyr show the background
EPHB1 = EPHB1 (UniProt P54762); assay: as above
EPHB2 = EPHB2 (UniProt P29323); assay: as above
FGFR1 = FGFR1 (UniProt P11362); assay: as above
FGFR3 = FGFR3 (UniProt P22607); assay: as above
Fer (mouse) = assay: as above
Fes = Fes (UniProt P07332); assay: as above
Fyn = Fyn (UniProt P06241); assay: as above
Hck = Hck (UniProt P08631); assay: as above
Jak2 = Jak2 (UniProt O60674); assay: as above
MERTK = MERTK (UniProt Q12866); assay: as above
c-Abl (mouse) = assay: as above
c-Src = assay: as above
Grb2 SH2 = Grb2 SH2 (UniProt P62993); assay: SH2 binding enrichment of the phosphorylated peptide, bacterial display (enrichment ratio); higher = better substrate or ligand; peptides without Tyr show the background
SHP2-C SH2 = assay: as above
c-Src SH2 = assay: as above
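Wherever SH2 binding enrichment of the phosphorylated peptide, bacterial display is given: peptide library displayed on the E. coli surface as eCPX fusions, selected cells deep-sequenced, score is each peptide's frequency after selection divided by its frequency in the input.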
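Wherever phosphorylation enrichment, bacterial display is given: 11-residue human phosphosite peptides and single-mutation variants displayed on the E. coli surface, counted by deep sequencing, each peptide's frequency after selection divided by its frequency in the unselected input library; frequency after pTyr selection over input frequency; kinase dosed for 20-30% of maximal phosphorylation in three min.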

FGFR3, sequence (P22607 whole entry, looked up): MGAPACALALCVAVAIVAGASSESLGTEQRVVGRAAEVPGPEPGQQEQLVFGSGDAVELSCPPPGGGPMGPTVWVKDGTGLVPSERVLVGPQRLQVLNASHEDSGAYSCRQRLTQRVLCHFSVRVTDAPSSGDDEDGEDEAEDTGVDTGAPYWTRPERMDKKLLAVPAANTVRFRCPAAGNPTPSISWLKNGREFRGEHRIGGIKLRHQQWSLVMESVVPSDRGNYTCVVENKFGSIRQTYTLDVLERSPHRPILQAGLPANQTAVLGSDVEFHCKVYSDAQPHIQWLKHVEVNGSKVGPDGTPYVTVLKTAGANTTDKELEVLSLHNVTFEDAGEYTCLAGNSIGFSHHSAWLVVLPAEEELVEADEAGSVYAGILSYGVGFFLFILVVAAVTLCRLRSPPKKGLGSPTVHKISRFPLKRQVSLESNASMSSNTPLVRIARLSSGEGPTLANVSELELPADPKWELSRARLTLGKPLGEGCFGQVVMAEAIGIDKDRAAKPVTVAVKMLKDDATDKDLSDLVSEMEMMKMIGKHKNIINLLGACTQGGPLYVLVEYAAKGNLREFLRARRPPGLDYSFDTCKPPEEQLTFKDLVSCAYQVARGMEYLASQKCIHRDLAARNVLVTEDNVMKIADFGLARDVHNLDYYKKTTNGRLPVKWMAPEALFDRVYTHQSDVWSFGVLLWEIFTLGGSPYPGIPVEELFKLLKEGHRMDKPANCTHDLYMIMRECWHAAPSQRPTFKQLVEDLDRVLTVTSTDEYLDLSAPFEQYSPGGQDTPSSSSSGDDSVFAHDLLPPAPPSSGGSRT
Hck, sequence (P08631 whole entry, looked up): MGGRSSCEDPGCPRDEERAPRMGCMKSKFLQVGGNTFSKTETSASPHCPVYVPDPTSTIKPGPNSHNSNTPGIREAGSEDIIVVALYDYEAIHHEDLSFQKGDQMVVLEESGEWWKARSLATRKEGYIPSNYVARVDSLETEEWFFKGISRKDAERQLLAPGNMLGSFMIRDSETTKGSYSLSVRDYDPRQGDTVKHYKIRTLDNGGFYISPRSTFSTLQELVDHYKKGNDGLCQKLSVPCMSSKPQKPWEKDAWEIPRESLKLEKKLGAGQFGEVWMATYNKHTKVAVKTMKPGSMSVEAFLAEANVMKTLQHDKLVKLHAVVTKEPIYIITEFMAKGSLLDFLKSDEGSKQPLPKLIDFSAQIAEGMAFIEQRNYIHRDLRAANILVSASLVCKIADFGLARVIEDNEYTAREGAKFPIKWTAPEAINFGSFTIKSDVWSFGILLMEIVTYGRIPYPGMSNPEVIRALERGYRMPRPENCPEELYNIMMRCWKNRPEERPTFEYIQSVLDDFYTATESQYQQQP
Jak2, sequence (O60674 whole entry, looked up): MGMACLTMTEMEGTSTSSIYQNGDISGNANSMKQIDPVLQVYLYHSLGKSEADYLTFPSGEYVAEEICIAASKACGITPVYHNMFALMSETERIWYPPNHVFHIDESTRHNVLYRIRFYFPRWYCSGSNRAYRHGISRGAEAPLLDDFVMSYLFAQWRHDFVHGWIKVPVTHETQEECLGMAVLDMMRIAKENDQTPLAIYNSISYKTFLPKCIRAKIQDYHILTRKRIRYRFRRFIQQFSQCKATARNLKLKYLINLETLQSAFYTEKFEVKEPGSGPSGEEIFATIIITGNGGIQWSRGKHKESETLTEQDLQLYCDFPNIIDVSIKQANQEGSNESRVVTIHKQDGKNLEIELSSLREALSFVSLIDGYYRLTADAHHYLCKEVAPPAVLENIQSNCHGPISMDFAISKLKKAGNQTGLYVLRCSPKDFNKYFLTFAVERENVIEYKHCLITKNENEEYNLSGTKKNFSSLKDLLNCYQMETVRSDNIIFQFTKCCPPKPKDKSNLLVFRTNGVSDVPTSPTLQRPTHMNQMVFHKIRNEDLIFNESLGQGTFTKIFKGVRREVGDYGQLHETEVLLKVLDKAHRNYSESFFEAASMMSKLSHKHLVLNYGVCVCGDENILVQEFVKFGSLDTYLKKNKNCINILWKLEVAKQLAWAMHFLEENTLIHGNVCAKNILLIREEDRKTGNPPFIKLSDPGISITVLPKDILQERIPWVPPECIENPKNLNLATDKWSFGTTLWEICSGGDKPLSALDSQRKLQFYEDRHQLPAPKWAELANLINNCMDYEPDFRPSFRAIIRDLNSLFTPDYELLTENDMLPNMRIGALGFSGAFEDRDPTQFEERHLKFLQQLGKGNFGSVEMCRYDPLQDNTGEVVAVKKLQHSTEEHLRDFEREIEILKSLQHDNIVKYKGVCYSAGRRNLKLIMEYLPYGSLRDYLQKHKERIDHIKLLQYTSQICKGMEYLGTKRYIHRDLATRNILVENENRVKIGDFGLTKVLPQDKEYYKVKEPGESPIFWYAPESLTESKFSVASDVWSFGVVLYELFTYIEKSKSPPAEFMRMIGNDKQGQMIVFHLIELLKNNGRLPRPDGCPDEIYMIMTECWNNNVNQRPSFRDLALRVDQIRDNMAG
EPHB2, sequence (P29323 whole entry, looked up): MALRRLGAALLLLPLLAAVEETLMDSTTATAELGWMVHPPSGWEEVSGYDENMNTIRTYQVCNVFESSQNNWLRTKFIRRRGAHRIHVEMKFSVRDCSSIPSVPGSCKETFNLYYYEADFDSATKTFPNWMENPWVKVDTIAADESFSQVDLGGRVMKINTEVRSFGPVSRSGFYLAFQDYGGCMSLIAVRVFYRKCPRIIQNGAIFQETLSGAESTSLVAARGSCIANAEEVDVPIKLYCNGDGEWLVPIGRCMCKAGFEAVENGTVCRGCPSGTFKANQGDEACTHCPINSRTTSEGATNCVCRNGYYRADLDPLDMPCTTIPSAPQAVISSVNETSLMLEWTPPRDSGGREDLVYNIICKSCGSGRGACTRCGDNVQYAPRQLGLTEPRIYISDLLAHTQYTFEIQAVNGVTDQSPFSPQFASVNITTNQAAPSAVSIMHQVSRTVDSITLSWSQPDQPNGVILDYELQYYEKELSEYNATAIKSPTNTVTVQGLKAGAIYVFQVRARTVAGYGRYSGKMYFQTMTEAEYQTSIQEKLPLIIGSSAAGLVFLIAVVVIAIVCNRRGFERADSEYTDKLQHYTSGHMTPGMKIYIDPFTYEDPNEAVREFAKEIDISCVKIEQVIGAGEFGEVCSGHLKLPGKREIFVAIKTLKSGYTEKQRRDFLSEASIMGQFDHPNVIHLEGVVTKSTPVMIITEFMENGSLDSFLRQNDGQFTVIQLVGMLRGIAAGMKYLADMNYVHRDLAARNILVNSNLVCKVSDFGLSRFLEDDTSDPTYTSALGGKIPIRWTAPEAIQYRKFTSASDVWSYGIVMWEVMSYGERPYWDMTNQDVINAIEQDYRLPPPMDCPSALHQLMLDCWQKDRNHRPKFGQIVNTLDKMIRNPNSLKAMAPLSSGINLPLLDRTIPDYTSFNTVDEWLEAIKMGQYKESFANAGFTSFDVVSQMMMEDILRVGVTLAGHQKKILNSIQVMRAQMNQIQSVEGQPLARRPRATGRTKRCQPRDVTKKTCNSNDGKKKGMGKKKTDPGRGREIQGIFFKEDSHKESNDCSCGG
Fyn, sequence (P06241 whole entry, looked up): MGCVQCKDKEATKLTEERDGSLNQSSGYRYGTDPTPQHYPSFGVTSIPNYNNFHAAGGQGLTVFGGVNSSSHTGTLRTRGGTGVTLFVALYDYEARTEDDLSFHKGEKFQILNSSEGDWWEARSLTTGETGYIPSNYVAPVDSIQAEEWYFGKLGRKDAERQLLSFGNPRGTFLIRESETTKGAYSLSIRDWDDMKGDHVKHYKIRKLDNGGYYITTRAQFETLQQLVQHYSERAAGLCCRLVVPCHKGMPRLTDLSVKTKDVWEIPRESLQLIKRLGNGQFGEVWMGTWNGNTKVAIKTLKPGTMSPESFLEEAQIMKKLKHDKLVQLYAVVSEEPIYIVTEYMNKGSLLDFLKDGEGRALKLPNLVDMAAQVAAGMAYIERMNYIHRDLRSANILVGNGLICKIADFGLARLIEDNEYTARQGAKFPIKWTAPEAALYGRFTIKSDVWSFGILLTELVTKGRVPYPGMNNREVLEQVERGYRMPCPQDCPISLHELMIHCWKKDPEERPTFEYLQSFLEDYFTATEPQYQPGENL
EPHB1, sequence (P54762 whole entry, looked up): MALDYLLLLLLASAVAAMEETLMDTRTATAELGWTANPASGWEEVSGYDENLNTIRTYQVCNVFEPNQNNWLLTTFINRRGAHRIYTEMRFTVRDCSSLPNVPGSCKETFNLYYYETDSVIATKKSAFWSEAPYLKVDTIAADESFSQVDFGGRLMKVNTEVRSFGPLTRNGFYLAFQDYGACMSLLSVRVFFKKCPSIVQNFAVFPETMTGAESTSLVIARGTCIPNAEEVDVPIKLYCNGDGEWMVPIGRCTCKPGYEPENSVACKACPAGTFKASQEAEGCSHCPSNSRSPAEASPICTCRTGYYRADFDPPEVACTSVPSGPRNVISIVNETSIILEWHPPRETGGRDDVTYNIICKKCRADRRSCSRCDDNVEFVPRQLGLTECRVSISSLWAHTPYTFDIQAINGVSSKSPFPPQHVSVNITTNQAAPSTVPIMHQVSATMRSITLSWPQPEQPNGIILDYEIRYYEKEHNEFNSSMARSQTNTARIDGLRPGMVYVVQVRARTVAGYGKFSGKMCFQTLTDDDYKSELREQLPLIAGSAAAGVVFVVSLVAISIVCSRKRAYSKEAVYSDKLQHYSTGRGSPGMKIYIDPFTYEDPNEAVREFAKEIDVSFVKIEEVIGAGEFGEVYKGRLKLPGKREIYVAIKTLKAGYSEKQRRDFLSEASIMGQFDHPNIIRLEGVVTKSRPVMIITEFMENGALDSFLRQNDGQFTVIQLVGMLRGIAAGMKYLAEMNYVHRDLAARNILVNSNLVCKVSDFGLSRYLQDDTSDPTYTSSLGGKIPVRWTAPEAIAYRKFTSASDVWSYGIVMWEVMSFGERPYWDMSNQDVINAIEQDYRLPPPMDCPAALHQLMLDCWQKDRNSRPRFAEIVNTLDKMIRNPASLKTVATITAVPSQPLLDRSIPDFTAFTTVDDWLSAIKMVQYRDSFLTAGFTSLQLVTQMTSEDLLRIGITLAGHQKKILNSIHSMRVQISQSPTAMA

Sequence | phosphorylation enrichment (AncSZ) | phosphorylation enrichment (EPHB1) | phosphorylation enrichment (EPHB2) | phosphorylation enrichment (FGFR1) | phosphorylation enrichment (FGFR3) | phosphorylation enrichment (Fer (mouse)) | phosphorylation enrichment (Fes) | phosphorylation enrichment (Fyn) | phosphorylation enrichment (Hck) | phosphorylation enrichment (Jak2) | phosphorylation enrichment (MERTK) | phosphorylation enrichment (c-Abl (mouse)) | phosphorylation enrichment (c-Src) | SH2 binding enrichment (Grb2 SH2) | SH2 binding enrichment (SHP2-C SH2) | SH2 binding enrichment (c-Src SH2)
KWRGQYDVAIE [BTK_Y425_K430E] | 0.631 | 0.441 | 0.531 | 0.448 | 0.481 | 0.505 | 0.774 | 0.39 | 0.509 | 0.708 | 0.424 | 0.537 | 0.437 | 1.01 | 0.823 | 3.07
KKFFSYAWPFF [BRDT_Y291_H288Y_YF] | 1.07 | 0.505 | 0.545 | 0.515 | 0.716 | 0.488 | 0.991 | 0.555 | 0.497 | 0.92 | 1.58 | 0.611 | 0.497 | 1.34 | 1.25 | 0.982
KDIENHIQDGK [RAD50_Y964_Y964H] | 0.69 | 0.378 | 0.542 | 0.41 | 0.445 | 0.414 | 0.684 | 0.488 | 0.463 | 0.621 | 0.413 | 0.392 | 0.446 | 0.682 | 0.471 | 0.41
NGTVTYAIVAG [CDH23_Y1672] | 0.99 | 3.07 | 2.01 | 0.545 | 0.714 | 0.471 | 0.992 | 0.904 | 1.09 | 0.799 | 2.6 | 0.688 | 1.08 | 0.655 | 12.8 | 1.24
WRVIGYHVVVW [ATP13A2_Y50] | 1.21 | 0.695 | 0.692 | 0.551 | 0.828 | 0.587 | 1.25 | 0.444 | 0.568 | 1.19 | 0.417 | 0.903 | 0.501 | 1.08 | 0.915 | 0.727
NPIGLYSAETL [LDB3_Y202] | 0.691 | 1.73 | 1.74 | 0.451 | 0.498 | 1.12 | 0.72 | 0.666 | 0.967 | 0.71 | 4.18 | 0.496 | 0.962 | 0.813 | 0.769 | 0.486
TSNNPYFRDQA [RPGRIP1_Y846_A841T] | 0.665 | 0.395 | 0.374 | 0.451 | 0.544 | 0.396 | 0.796 | 0.51 | 0.454 | 0.901 | 0.473 | 0.628 | 0.721 | 0.789 | 0.844 | 0.503
IGEVVYQWAVM [GRIN2A_Y502_R504W] | 2.06 | 0.89 | 0.598 | 1.03 | 1.15 | 7.77 | 1.48 | 1.16 | 1.1 | 1.17 | 0.904 | 1.57 | 1.47 | 0.845 | 0.61 | 0.532
RRERDYTNLPS [CSF1R_Y923] | 2.88 | 0.447 | 0.548 | 0.493 | 0.541 | 0.474 | 0.561 | 0.651 | 0.62 | 0.628 | 0.558 | 0.692 | 0.668 | 0.519 | 0.485 | 0.486
HLSPEYKQNEI [GJB1_Y243_R238H] | 0.966 | 0.68 | 1.33 | 0.857 | 0.728 | 0.418 | 1.07 | 0.594 | 0.614 | 0.874 | 0.676 | 0.716 | 0.532 | 0.905 | 0.683 | 0.611
ILGRYYETGSI [PAX2_Y73] | 0.685 | 0.546 | 0.594 | 0.848 | 0.834 | 0.459 | 0.68 | 0.562 | 0.49 | 0.643 | 0.707 | 0.535 | 0.455 | 0.817 | 0.649 | 1.8
AEPDIYQEKLS [USP54_Y1233] | 0.994 | 0.531 | 0.508 | 0.457 | 0.623 | 0.485 | 1.08 | 0.58 | 0.702 | 1.01 | 0.405 | 0.692 | 0.568 | 1.19 | 0.785 | 0.674
EQLRAYLEGEC [HLA-C_Y183_T187E] | 1.3 | 0.775 | 0.623 | 0.514 | 0.949 | 0.537 | 1.25 | 0.548 | 0.533 | 1.14 | 0.51 | 1.15 | 0.465 | 0.783 | 0.664 | 0.502
YGSSSSGGAGG [RPA2_Y14_Y14S] | 0.604 | 0.304 | 0.461 | 0.403 | 0.347 | 0.437 | 0.535 | 0.389 | 0.359 | 0.392 | 0.355 | 0.317 | 0.337 | 0.711 | 0.612 | 0.395
FSIAQYCCRMG [LRRK2_Y2023_G2019S_YF] | 0.839 | 0.684 | 5.07 | 0.479 | 0.57 | 0.4 | 0.868 | 0.401 | 0.449 | 0.758 | 0.994 | 1.03 | 0.425 | 1.17 | 0.826 | 0.981
LRGVIYVILRK [PMP22_Y153_S149R] | 2.21 | 0.58 | 0.551 | 0.665 | 0.833 | 0.577 | 1.09 | 0.65 | 0.509 | 1.15 | 0.393 | 0.778 | 0.713 | 0.893 | 0.359 | 0.373
NLSVPYDSSLK [ABCC8_Y1353_R1352P] | 0.601 | 0.451 | 0.509 | 0.445 | 0.503 | 0.418 | 0.68 | 0.41 | 0.445 | 0.588 | 0.426 | 0.516 | 0.508 | 0.765 | 0.735 | 0.489
